Consider 54 molecules from article PMC314469, “Protein Interaction Networks by Proteome Peptide Scanning” (PLoS Biology, 2004).

T1: Abp1 SH3 (ABP1_YEAST), P15891
T1 chain: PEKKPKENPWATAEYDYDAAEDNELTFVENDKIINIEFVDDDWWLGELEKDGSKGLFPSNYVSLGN

This test addresses T1, Abp1 SH3 (ABP1_YEAST), P15891. As to the kind of experiment: SPOT array.
For KLKITRNPNPSKP [YHR208W 27-39], the normalised SPOT signal, Boehringer light units (BLU); mean over the file's lines of this peptide stood at 245. Take KSELPKSPYRQKP [YHR184W 123-135]: the normalised SPOT signal, Boehringer light units (BLU); mean over the file's lines of this peptide came to 205. The result for KMISNRRPVPRRP [YPR091C 656-668] reads 6230; that for KKPASKAPAEKKP [YBL002W 7-19], 174; that for KPGWVVYPPPPKP [YML035C 221-233], 154.

For KTATTPPPVLRRP [YMR184W 66-78], the normalised SPOT signal, Boehringer light units (BLU); mean over the file's lines of this peptide amounted to 9110. KTGNPFVRINPNRP [YBR136W 497-510] had a normalised SPOT signal, Boehringer light units (BLU); mean over the file's lines of this peptide of 371. With KNSDMMIPLDVKP [YOL081W 3046-3058] the figure was 89. With KLGPISTSKSPKKP [YJL051W 233-246] the figure was 200; with KMIMKLIPKDVKP [YJL131C 312-324], 1480. With KSNLLSVPEAYKP [YIL030C 763-775] the figure was 200; with KPFNPTLPEGIRP [YJL050W 736-748], 87.3. KSYRKAFPNMVKP [YML002W 638-650] had a normalised SPOT signal, Boehringer light units (BLU); mean over the file's lines of this peptide of 217. In the case of KSRHFTYPEGVKP [YHR006W 264-276], the normalised SPOT signal, Boehringer light units (BLU); mean over the file's lines of this peptide was 55.9. In the case of KSGSSQPPSFIKP [YIR007W 614-626], the normalised SPOT signal, Boehringer light units (BLU); mean over the file's lines of this peptide is 69.8. As for KLHFSSFPNDIRP [YER097W 23-35], the normalised SPOT signal, Boehringer light units (BLU); mean over the file's lines of this peptide amounted to 396. KLQGSFNPEYIKP [YML072C 1243-1255] registered a normalised SPOT signal, Boehringer light units (BLU); mean over the file's lines of this peptide of 108. With KTDAKLKPFIYRP [YGR084C 56-68] the figure was 2160. The result for KRRTSLFPWLHKP [YDR389W 506-518] reads 122; that for KVHRHEPPVTSKP [YOL066C 148-160], 69.6. The result for KVVASKIPVISKP [YHR077C 993-1005] reads 126. For the molecule KSQTIILPIYGRP [YGL207W 558-570], the normalised SPOT signal, Boehringer light units (BLU); mean over the file's lines of this peptide was determined as 84.4. The result for KNYDVIVPNVWRP [YML115C 378-390] reads 15.7; that for KSRLIVNPFIPRRP [YDR409W 855-868], 360; that for KTKAKKEKPKPPKP [YMR044W 279-292], 119.

For KSDVPEDPIYSKP [YBR003W 113-125], the normalised SPOT signal, Boehringer light units (BLU); mean over the file's lines of this peptide came to 19.8. With KVFLDTHKESPLRP [YKR003W 302-315] the figure was 73.1. The result for KRKRSKGEVNPSKP [YPR137W 9-22] reads 110; that for KPLININPYTRKP [YLR357W 223-235], 1140. With KRYDYKKPTVNRP [YPL074W 344-356] the figure was 71.4; with KKSRSTGFKNPLRP [YML061C 150-163], 184. For KPVAPTSTDAPAKP [YOL027C 66-79], the normalised SPOT signal, Boehringer light units (BLU); mean over the file's lines of this peptide worked out at 45.8. With KTREPLQPRPPVKP [YGR084C 83-96] the figure was 706. With KMQRYFRPIIVRP [YLR290C 188-200] the figure was 541; with KRLLMKGYIPPYKP [YKL126W 608-621], 169.

KLKELQTITVPGKP [YER124C 120-133] gave a normalised SPOT signal, Boehringer light units (BLU); mean over the file's lines of this peptide of 131.

The molecule KSPSNIKLSIPARP [YJL095W 316-329] displayed a normalised SPOT signal, Boehringer light units (BLU); mean over the file's lines of this peptide of 107. The result for KKQTQLSSTAPKKP [YGR056W 686-699] reads 34.9. The result for KLDIISDPESERP [YGL004C 356-368] reads 107. With KRSLEENPVNKRP [YAL011W 331-343] the figure was 33.4. The molecule KRESLNQPSTTKP [YHR084W 174-186] yielded a normalised SPOT signal, Boehringer light units (BLU); mean over the file's lines of this peptide of 134. With KQKNIYVISTPKRP [YLR398C 492-505] the figure was 98.7; with KVMENWTPGAPKP [YGL202W 197-209], 106. The result for KSILHGLADEPRRP [YPR084W 202-215] reads 98.4; that for KVKQYIEPESVKP [YBR236C 423-435], 100.

As for KSDKEISPKSQRP [YER025W 165-177], the normalised SPOT signal, Boehringer light units (BLU); mean over the file's lines of this peptide came to 75.6.

Molecule KLYYVLYSSLPSKP [YGR216C 582-595] showed a normalised SPOT signal, Boehringer light units (BLU); mean over the file's lines of this peptide of 0.4. The molecule KKPKLNKRVLPSKP [YLR183C 347-360] had a normalised SPOT signal, Boehringer light units (BLU); mean over the file's lines of this peptide of 128. The result for KRAKEYIANLPMRP [YGR040W 256-269] reads 22; that for KSLEDYRPPDEKP [YGR197C 50-62], 161; that for KPEYFPFPIYDKP [YBR086C 485-497], 96.4. The result for KNDGSSSFVKPRRP [YNL215W 286-299] reads 202; that for KPTPPPKPSHLKP [YNL020C 608-620], 133000; that for KQQQEQQNKAPEKP [YGL105W 191-204], 97.5.
